Measured values from patent US20130251714A1.

Target: CXCR5 (human; form in the assay not stated) (UniProt P32302)
Experiment: side-by-side comparison; method not stated

B1: Mouse anti-hCXCR5 mAb clone 16D7 (antibody, V domains shown)
VH: QVQLKESGPGLVAPSQSLSITCTVSGFSLIDYGVNWIRQPPGKGLEWLGVIWGDGTTYYNSALKSRLSIRKDNSQSQVFLKMNSLQTDDTAMYYCARIVYWGQGTLVTVSA
VL: DIVMTQAAPSVAVTPRESVSISCRSSKSLLHSSGKTYLYWFLQRPGQSPQLLIYRMSNLASGVPDRFSGSGSGTAFTLRISRVEAEDVGVYYCMQHLEYPYTFGGGTKLEIK
A fold higher affinity than the commercial antibodies of 10 fold and an off rate, times better than the other antibodies of 100 times were found for B1 in this work.
